The supplement of paper PMC9170038

Legend:
MS2 coat protein = assay: apparent KD of MS2 coat protein; higher = weaker reporter binding; conditions: Eterna round: R107
Procedure: (§1)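 RNA-MaP round R107: designed RNA switches with theophylline, tryptophan, arginine or FMN aptamers are transcribed on-chip within common flanks. They are titrated with SNAP-549-labelled MS2 coat protein in RNA-MaP buffer (100 mM Tris pH 7.5, 80 mM KCl, 4 mM MgCl2), without ligand or with the indicated ligand. Median apparent KD per design.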

[1] = system: K4 kissing-loop RNA reporter; assay: apparent KD of K4 kissing-loop reporter; higher = weaker reporter binding; conditions: Eterna round: R107;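 also: bound reporter read as fluorescence of individual clusters on recovered sequencing chips by microscopy, with normalized cluster intensities fitted with a binding model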
Procedure: as §1, with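 “a labelled K4 kissing-loop RNA reporter” for “SNAP-549-labelled MS2 coat protein”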

[2] = input ligand: theophylline 20 uM
[3] = input ligand: theophylline 2 mM
[4] = input ligand: tryptophan 2.4 mM

Row | Sequence | apparent KD of MS2 coat protein (MS2 coat protein; input ligand: arginine 13.2 mM) | apparent KD of MS2 coat protein (MS2 coat protein; input ligand: none) | apparent KD of MS2 coat protein (MS2 coat protein; [2]) | apparent KD of MS2 coat protein (MS2 coat protein; [3]) | apparent KD of MS2 coat protein (MS2 coat protein; [4]) | apparent KD of K4 kissing-loop reporter ([1]; input ligand: FMN 200 uM) | apparent KD of K4 kissing-loop reporter ([1]; input ligand: arginine 13.2 mM) | apparent KD of K4 kissing-loop reporter ([1]; input ligand: none) | apparent KD of K4 kissing-loop reporter [1, 2] | apparent KD of K4 kissing-loop reporter [1, 4]
1 | UUGGGUUUGUGAAGGAGCGGGAAAUAUAUAUAUAUAAUCCUAACAUGAGGAUCACCCAUGUCCCAGGUAGGUCGCGCGGGUUUGG [12.N] | 46.4 nM | 60.2 nM | 63.5 nM | 65.5 nM | 51.6 nM |  |  |  |  | 
2 | ACACAUGAGGAUCACCCAUGUUCAAUAGAUACCAGUGAUACGGUGCACCCUUGGCAGCUGUUGCUGAGUGAUGGUUCCCUCGGUA [#23 SameState-TheophyllineA] | 28.1 nM |  | 53.9 nM |  | 41 nM |  |  |  |  | 
3 | GGAUAGGACACGGCCGCCACUAGCUAGGAUACUAGCAACAUUUCCUCACUUGAGGAUCACCCAAGUAGGACCGGGUGUCCUAUCG | 95.2 nM | 162 nM | 250 nM | 160 nM | 182 nM |  |  |  |  | 
4 | ACACAUGAGGAUCACCCAUGUGCGCUGGAAGGAGCGCAGAAUCAUGCAGGUAGGUCGCCAGUGCCUUUUGAUAAAGGGAAAAGAA [Cezaquce] | 66.1 nM | 86.1 nM | 94.6 nM | 69.3 nM | 60.6 nM |  |  |  |  | 
5 | GGGCCCGGGCGCGAGCCCGGGCCCAUUGAUACCAGUGAUAGAGAGCGCCCUUGGCAGCGAAUCCUAACAUGAGGAUCACCCAUGU [5.K] | 37.5 nM | 46.3 nM | 95.2 nM | 83.9 nM | 56.6 nM |  |  |  |  | 
6 | AAGGUGAUCCGUGAUACCAGCUCAACAUGAGGAUCACCCAUGUAAGCCUGGAAACAGGCGAGCCCUUGGCAGCACGGUAAUAAUA [(M)'-(Theo1)-(Ms2)-(Theo2)-(M'')] | 12.6 nM |  | 14.5 nM |  | 12.6 nM |  |  |  |  | 
7 | GGUUACUCUACGGCCGCCACUGGGCAUGUAAAUAACAUGAGGAUCACCCAUGUGGAUUAAUAUUACAGGACCGGGUAGUGUAACC [Tryptophan B 23] | 126 nM | 279 nM | 253 nM | 384 nM | 25.1 nM |  |  |  |  | 
8 | CAUUAAUUACGAAGGAGCGUCGAAAAUGGGUAAACAUGAGGAUCACCCAUGUAAAGGGAACGACAGGUAGGUCGCGUAAUUAAUG [AstromonsSSArgB#2] | 132 nM | 170 nM | 169 nM | 230 nM | 158 nM |  |  |  |  | 
9 | AUGUCUAAUACGGCCGCCACUCGAGCAGUGAUGUUGCUCAGUAAUGGUCAUCGUCGUACAUGCCCGAGGACCGGGUAUUGAUUUG [Remain] |  |  |  |  |  | 147 nM | 122 nM | 140 nM | 145 nM | 175 nM
10 | AAAAUAAUCCAGUGAUGUUGGUGUCCAGAUACCAGCGACGAAAGUCGCCCUUGGCAGCUGUGGACGUACAAAAUAAGUACGUCCU |  |  |  |  |  | 476 nM | 331 nM | 559 nM | 251 nM | 431 nM
11 | UGGAGUUGACGAAAAGUCAACUCCUGGGAAGGAGCGGACGAAAGUCCAGGUAGGUCGCCCACUACCAGUGAUGUUGGUACUCAAA |  |  |  |  |  | 178 nM | 196 nM | 170 nM | 266 nM | 169 nM
12 | AAUAACUUGCAGUGAUGUUGCAAGAAAGCUCAGGAUAUCAGGAAACUGAGAAGGGAGCAUCCUGAGCAAACAUCACAACUUAGGA [[K1]-[K2]-[F1]-[F2]-[F]'-[K]'-[F]''_Design2] |  |  |  |  |  | 368 nM | 295 nM | 406 nM | 448 nM | 361 nM
13 | UUUAUUAAGACGGCCGCCACUGAAUUAGAGUGAUGUUCUAAAAUUACUAAAUUAAAUUUAUUCAACAGGACCGGGUCAAUUAUUA [JR_SSTryptoB_Sub010] |  |  |  |  |  | 399 nM | 405 nM | 461 nM | 432 nM | 513 nM
14 | UGACUGGAUGGAAGGAGCGCUAAACUCCUAGUGAUGUUAGGGAUACGAGGCAAAGCCUCGAGGCAGGUAGGUCGCCAUCUAGUCU [FiskerMod 24 - Jieux - Same State - Arginine B] |  |  |  |  |  | 167 nM | 129 nM | 124 nM | 147 nM | 136 nM
15 | AGAGUUAUAUGAGGAUAUGGGAUAGUAACUGAGUGAGUUAUAGUGUAGUUUGUUUAGUGAUGUUAUUUAGAAGGCGUGAGUGAUG [wwwsemullin] |  |  |  |  |  | 162 nM | 121 nM | 147 nM | 182 nM | 107 nM
16 | UGUAUGGACUGAAGGAGCGGUAUAUAAACUGAGUGAUGUUCGGCAGAUAAAGGCGCAAGCCACCAGGUAGGUCGCAGUCCAUACU [KL-SSArg B2] |  |  |  |  |  | 453 nM | 207 nM | 381 nM | 390 nM | 342 nM

Row | Sequence | apparent KD of MS2 coat protein (MS2 coat protein; input ligand: arginine 13.2 mM) | apparent KD of MS2 coat protein (MS2 coat protein; input ligand: none) | apparent KD of MS2 coat protein (MS2 coat protein; [2]) | apparent KD of MS2 coat protein (MS2 coat protein; [3]) | apparent KD of MS2 coat protein (MS2 coat protein; [4]) | apparent KD of K4 kissing-loop reporter ([1]; input ligand: FMN 200 uM) | apparent KD of K4 kissing-loop reporter ([1]; input ligand: arginine 13.2 mM) | apparent KD of K4 kissing-loop reporter ([1]; input ligand: none) | apparent KD of K4 kissing-loop reporter [1, 2] | apparent KD of K4 kissing-loop reporter [1, 4]
17 | AGUGAUAUAUGAGGAUAUGGGUUUGUUAAUGAGUUUGUUUUAGUGUUGUUUGGUUAGUGAUGUUAUUUAGAAGGCGUGAGUGAUG [vxxexmullin] |  |  |  |  |  | 130 nM | 80.5 nM | 82.4 nM | 127 nM | 72 nM
18 | UACUGGGCGAGUGAUGUUUGCUCAUGUGAUACCAGUGCCAUCCAACACCCUUGGCAGCAUGCGGGCAGUGAUGUUGUCCAUGGAA [Exclusion Theophylline A GF10] |  |  |  |  |  | 629 nM | 597 nM | 667 nM | 645 nM | 640 nM
19 | AAACAUCACUGGGAGUGAUGUUCUCAGUGACGAGGACCGGUACGGCCGCCACUCGCGAGAGAUAUAAAUAAGUAAUGACAUCAUU [Excl Tryptophan A V1] |  |  |  |  |  | 359 nM | 334 nM | 360 nM | 357 nM | 423 nM
20 | AAAAUAACCCAGUGAUGUUGGUAUGCAGAUACCAGCGACGAAAGUCGCCCUUGGCAGCUGUGGACGUACAAAAUAAGUACGUCCU |  |  |  |  |  | 1230 nM | 834 nM | 1420 nM | 1220 nM | 1520 nM
21 | UGUACCGAGUCAGGAUAUCAUAAUAAUCGAGUGAUGUUCGAAUAACGACUGACAAAGUCGGUCGAUUGAGAAGGGACUUGGUACU [FmnBS 7 #SwitchBubble #StaticStem] |  |  |  |  |  | 150 nM | 342 nM | 444 nM | 362 nM | 378 nM
22 | GGAUAGGAGAGAGGAUAUGGGCUAGGCAAGAAUAACUUGUCUAGCAAAUCCAUGAGGAGUGAUGUUCCAGAAGGCUCUCCUAUCG [FmnBX 1 G9+C77] |  |  |  |  |  | 996 nM | 148 nM | 153 nM | 143 nM | 139 nM
23 | AAAUAAUAAAUGCAGCCAGUGAUGUUGGAAGGAGCGUGCGAAAGCACAGGUAGGUCGCCAACCAAAGCUGGAAACAGCAACUGCA [#SwitchBubble 3 #K4Early] |  |  |  |  |  | 226 nM | 129 nM | 84.5 nM | 129 nM | 99.1 nM
24 | AUAUCGGUUGAGAGUGAUGUUCCUUGUGUUCGAGGACCGGUACGGCCGCCACUCGGGUAGAAAAUAAAAGAUGUGUUUGAUUUUU [BDazzled - #14 SS Tryptophan A] |  |  |  |  |  | 243 nM | 91.5 nM | 203 nM | 402 nM | 221 nM
25 | GAAUGGAGUGAUGUUCCAUUAACGAUCCUACGAGGACCGGUACGGCCGCCACUCGUAUUGCAGUGAUGUUGCAACCAGCCGUACU [Exclusion Tryptophan A GF 9] |  |  |  |  |  | 111 nM | 113 nM | 114 nM | 111 nM | 102 nM
26 | AUAGGCAUAGCCCGAGUGAUGUUCGACGAUACCAGCCUCGAUAGAGGCCCUUGGCAGCGUAAAUGAUCAUGAAGCCAAGGAAUUA [whbob_Ex_Theo_A_th70] |  |  |  |  |  | 360 nM | 335 nM | 408 nM | 394 nM | 277 nM
27 | UGGACCUGACUCGAUAAGAGUCAAUGAGAUACCAGCCACGAAAGUGGCCCUUGGCAGCUCUGCCAGUGAUGUUGGUCAAGGUCCU [#SwitchBubble 5 #StaticStem] |  |  |  |  |  | 1280 nM | 889 nM | 1550 nM | 584 nM | 1100 nM
28 | CGCAGUGAUGUUGCUAUUAUUCUUGGUUAACGAGGACCGGUACGGCCGCCACUCGAUUUCUAUCUAAUCCAGUGUUUUUUUGAGU [JR_ExcTryptoA_Sub003] |  |  |  |  |  | 301 nM | 377 nM | 396 nM | 458 nM | 204 nM
29 | GGCACGGGCUCGGCCGCCACUCCCGCGGGUCGAAAGGUCCGCUACUGAGUGAUGUUCGGUUGGAGGAGGACCGGGAGCCCGUGCC [#2 Exclusion - Tryptophan B Attempt #23 (HarryS)] |  |  |  |  |  | 130 nM | 91.6 nM | 108 nM | 99.9 nM | 98.4 nM
30 | GCAGUGAUGUUGCGCGAGUACGGUAGAGUACGAGGACCGGUACGGCCGCCACUCGUACGGAACUGGCUAAUUUAUGGAAUGGUGA [III] |  |  |  |  |  | 254 nM | 227 nM | 295 nM | 270 nM | 193 nM
31 | AAAUAAAUCGGAGGAUAUCCUUCCCACGUCGAAGUACCGUGCUUGAUGGAGUGAUGUUCGAUCAGAGGAGAAGGCCGAUAAAUAA [Same State FMN B GF20] |  |  |  |  |  | 1040 nM | 732 nM | 1040 nM | 924 nM | 777 nM
32 | GCUAAGGAGUGAUGUUCCAAGUGAUGUUAACGAGGACCGGUACGGCCGCCACUCGAUACGGCCGGAAAGUAAGAUAAACUACAGC [Same State - Tryptophan A (Freestyle 5)] |  |  |  |  |  | 98.6 nM | 72.6 nM | 93.2 nM | 89.3 nM | 82.8 nM
